Data taken from the supplement of paper PMC9170038.

System: MS2 coat protein
Assay: apparent KD of MS2 coat protein; designed switch direction (-1 OFF switch, 1 ON switch): -1; higher = weaker reporter binding
Method in brief: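 Designed RNA switches sharing common flanks were transcribed on Illumina chips by stalled E. coli RNA polymerase. They were titrated with SNAP-549-labelled MS2 coat protein, from 0.7 or 1.5 nM doubling to 3 µM, in Tris-HCl pH 7.5 buffer with KCl, MgCl2, BSA, DTT, tRNA and Tween-20. Titrations ran without input, with 200 uM small-molecule ligand, or with an oligonucleotide input. The apparent KD of each design is the median over its clusters, after curve-fitting of normalised cluster fluorescence.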

[1] = Eterna round: R95, input ligand: microRNA oligo, concentration not stated

Sequence | apparent KD of MS2 coat protein (input ligand: FMN 200 uM) [nM] | apparent KD of MS2 coat protein (input ligand: none) [nM] | also measured
CCGUGCACGCUCCGGUCCUACAUGAGGAUCACCCAUGUGGUCCGGUGGCGUGGGUCGCCGGACUUGGCUCGUCUUGU [salish99_S_TOV1_R5_018] (Eterna round: R97, puzzle: Sensor, turn-off variant 1) | 16.3 | 17.4 | –
CCGUGGUUAGGAUAUUCGAAUGAGCACAUGAGGAUCACCCAUGUCUGAAUUGACAGCCGAGAAGAAGGAACCACUC [Eternabot (L2) Solution 24] (Eterna round: R97, puzzle: Exclusion 5) | 29.5 | 23.3 | –
CCUAGUUGGUAAGGAUAUCCUACACUAUUCUGACCCGUGCAAGCUACAUGAGGAUCACCCAUGUGGGAGAAGGUGCGUCAACGU [Design 10] (Eterna round: R96, puzzle: Exclusion NG 2) | 21.3 | 23.8 | apparent KD of MS2 coat protein (input ligand: microRNA oligo, concentration not stated): 18.2 nM
CCUAUGUUAGGAUAUCGGCAUCCCGGGCAGGUAGCCAGGACCGAGAAGGGACAUGAGGAUCACCCAUGUCAAAU [Eternabot (Original) Solution 4] (Eterna round: R97, puzzle: Exclusion 4) | 15.9 | 19.1 | –
CCUCAGUGAGGAUAUGGUAGACACAAUCGGGAUUGAGAAGGCCAGAAGGUACAUGAGGAUCACCCAUGUAAUCA [Eternabot (L2) Solution 58] (Eterna round: R97, puzzle: Exclusion 4) | 27.2 | 21.9 | –
CCUCAUAUUUAGGAUAUGAUUGGUAAUUAUUAGUUAGAAGGAGGUACAUGAGGAUCACCCAUGUAAAAUUUUUU [-13.7, -10.8 kcal, 32% A] (Eterna round: R97, puzzle: Exclusion 6) | 19.7 | 19.6 | –
CCUCCACAUGAGGAUCACCCAUGUCAGGAUAUCGUGUGUUUUUUUUCGGUCUUGCGUGCGAGAAGGGACGUCUU (puzzle: Exclusion 1) | – | – | apparent KD of MS2 coat protein [1]: 32.5 nM
CCUCCCUGAGGAUAUCCACCCUCAUACAUGAGGAUCACCCAUGUUCAACCCUGGGUUCCCGGAGAAGGCAGUUUCC [Megrez-2.4] (Eterna round: R97, puzzle: Exclusion 5) | 226 | 235 | –
CCUCGACAUGAGGAUCACCCAUGUCAGGAUAUUGUGUUUUGGGUUUUUUACCUUUUGGCAAGAAGGGAUGUGUG [LRO-Excl1-19] (puzzle: Exclusion 1) | – | – | apparent KD of MS2 coat protein [1]: 14.4 nM
CCUCUACAUGAGGAUCACCCAUGUGAGGAUAUCAAAAUCAGGGCGGCUCCCUGACCCAUGAGAAGGUGCAUGGA [EX1 A.5] (Eterna round: R97, puzzle: Exclusion 1) | 31 | 16.8 | –
CCUCUACAUGAGGAUCACCCAUGUUAGGAUAUGCCGGCCGACCUCGGGUGUGUAAUACGCAGAAGGAACGUUAC [Eternabot (Original) Solution 49] (Eterna round: R97, puzzle: Exclusion 1) | 835 | 2390 | –
CCUUAGUCACAGGAUAUGCUCAUCUAAUGAUGAGCAGAAGGGUGAACAUGAGGAUCACCCAUGUUUAUCAAGGG [Omei Ex6 E3] (Eterna round: R97, puzzle: Exclusion 6) | 300 | 274 | –
CCUUUGUCAGGAUAUCAGAACGCGCUCGAAAGGAACGCAAAUGAGAAGGGACAUGAGGAUCACCCAUGUAAAGA [Enenrixe] (puzzle: Exclusion 4) | – | – | apparent KD of MS2 coat protein (Eterna round: R95, input ligand: FMN 200 uM): 158 nM; apparent KD of MS2 coat protein [1]: 42.8 nM; apparent KD of MS2 coat protein (Eterna round: R95, input ligand: none): 45 nM
CCUUUGUCAGGAUAUCGUGCAUACAACGAAAGUUCUAUGUGCGAGAAGGGACAUGAGGAUCACCCAUGUUACGG [Omei Ex4 A3] (Eterna round: R97, puzzle: Exclusion 4) | 172 | 368 | –
CGAAUUCGUUAGGAUAUGAGGCAGAGGUCCGCCUCAGAAGGAAUGACAUGAGGAUCACCCAUGUAGACCCAAGG [Eternabot (Original) Solution 1] (Eterna round: R97, puzzle: Exclusion 6) | 18.9 | 19.1 | –
